Patent publication US20240417762A1, “MICROORGANISMS AND METHODS FOR PRODUCING REUTERIN” (Wisconsin Alumni Research Foundation, priority 2023, published 2024)

B1: Orf14: Limosilactobacillus reuteri Orf14 phage protein (SEQ ID NO:2), overexpressed from pSIP-orf14 (protein, listed as Lactobacillus reuteri)
chain: VIYMNKIKRLCKKYQQVIYTLFAVLVIISVVYFALHGFDSFVKWATTDVGSVADWAGSIGTILAFVAVIWQQGRQENITRAVHIEESRPRFSLTYTPKPVLKTRVLFWGNGRTAVNINEILGSRSAENYRFISIENISNNVVYDYSIILKYHSNDNARVRKDYWSSHGLFPRRSVAIVPKFMGTDKDKIGNYIYDELLVKFTTPANEVGFFISKNINNAQTDSSFGKSQYYFVRGSHVKRVTAINTDKMIDVDSSICRKLDKEFDEIIGITSLGEINENGKLS
B2: Orf14-mucosae: Limosilactobacillus mucosae Orf14 protein (SEQ ID NO:4), natural homolog, codon optimized for expression in L. reuteri (protein, listed as Lactobacillus mucosae)
chain: MKRVKELCKKYQQVIYTLLAVVAIVGVVYFALHGFNSFIKWATTDVGSVADWAGSIGTILAFIAVIWQQGRQENITRAVHVEESRPRFSVTYTPKPQAKTKMLFWGNNRTLSQINTMLNNRNGENYRFINIENISNNVVYDYSIILKYHFYDNSLVRKDYWSSHGLFPRRSIIIVPKFLGTGKDKIGNYIYDELLIKFTTPANEIGFFKMTNVNGNRTDSSFGDSQYYFVRGSHIKRVTAINTDEMIKADSPLCRKLDREFSETTGGTNFGAIGEDGKAY

System: reuterin production
Assay: Determination of reuterin formation during growth of L. reuteri ATCC PTA-6475 and its variants
Assay type: cell-based, Limosilactobacillus reuteri
Description: FIGS. 5A-5E. Reuterin production of L. reuteri ATCC PTA-6475 and its variants during the growth. Overnight cells were inoculated to reach an initial OD 0.1 in mMRS supplemented with 100 mM glucose and 40 mM glycerol. Supernatant was collected every hour during the growth at 37° C. and the reuterin concentrations were determined. The number of cells of each strain at each time point was normalized to an OD of 3. Data are shown as means±standard deviations for three independent experiments. Statistical significance was determined by unpaired t-test. * P<0.05; **** P<0.0001. In FIGS. 5C and 5D, “orf14” refers to orf14 from L. reuteri. In FIG. 5E, the origins of the orf14 genes (L. mucosae or L. reuteri) are indicated.
To characterize the reuterin production during growth, strains were cultured at 37° C. anacrobically in deMan-Rogosa-Sharpe medium (MRS; 288110, BD BioSciences) for 18 h, and then bacteria were sub-cultured to reach an initial OD600 of 0.1 in modified MRS (10 g peptone, 10 g beef extract, 5 g yeast extract, 2 g ammonium citrate dibasic, 2 g K2HPO4, 0.1 g MgSO4, 0.05 g MnSO4, and 1.0 g Tween 80 per liter) supplemented with 100 mM glucose. Cultures were incubated anaerobically at 37° C. Strains harboring pSIP411 or its variants were grown in mMRS supplemented with 5 μg/mL erythromycin. Where applicable, induction peptide (10 ng/ml) (MAGNSSNFIHKIKQIFTHR (SEQ ID NO:34)) was added. Samples were collected every hour up to 8 hours. Cell density was monitored using GENESYS 20 visible spectrophotometer (Thermo Scientific) and reuterin production was measured as described in Zhang et al. 2020. Briefly, cell-free supernatants (50 μL) were mixed with 37.5 μL tryptophan (Sigma-Aldrich) in a 96 well plate, followed by an addition of 150 μL 37% HCl (Thermo scientific). After incubating at 37° C. for 20 min, OD560 was measured by GloMax plate reader (Promega). Two-fold dilutions of acrolein (06-722-501, ThermoFisher) were used to generate a standard curve to quantify reuterin (Doleyres et al. 2005). […]

Molecule | increase in reuterin production compared to that in the wildtype strain (Orf14 overexpressed in L. reuteriΔΦ1ΔΦ2, following 5 h incubation, P<0.05) | reuterin production (growth at 37° C. in mMRS with 100 mM glucose and 40 mM glycerol, supernatant, normalized to OD 3) | higher reuterin production compared to the overexpression of native Orf14 (overexpression in L. reuteri (FIG. 5E))
B1 | 3 fold | rescued reuterin production | 
B2 |  |  | 2.9 fold
